For this experiment, the target named is UVR8^HY5C44 chimera (recombinant) (Arabidopsis). Nature of the experiment: SEC; purified recombinant chimeric UVR8 proteins alone, in the absence of UV-B. A general note: SEC sorts molecules by how far they enter the pores of the column.

By stoichiometry N is commonly meant a count of units in the complex or per binding partner.

As to UVR8^HY5C44 chimera (recombinant), the stoichiometry N came out at 2.

The record behind these values is paper PMC6745501, “Plant photoreceptors and their signaling components compete for COP1 binding via VP peptide motifs” (The EMBO Journal, 2019).
